Substitutions are numbered along the chain they refer to. Names may count otherwise. Values belong to the binder of their own block, whether it stands above or below them.
Experiments:
His-tagged CEACAM1 [1] = target: T1, His-tagged CEACAM1 (human, UniProt P13688 35-428); experiment: SPR single-cycle, supernatant IgG captured
T1 construct: 45 kDa SPR analyte; also called CEACAM1-HIS; CEACAM1 analyte
T1 sequence: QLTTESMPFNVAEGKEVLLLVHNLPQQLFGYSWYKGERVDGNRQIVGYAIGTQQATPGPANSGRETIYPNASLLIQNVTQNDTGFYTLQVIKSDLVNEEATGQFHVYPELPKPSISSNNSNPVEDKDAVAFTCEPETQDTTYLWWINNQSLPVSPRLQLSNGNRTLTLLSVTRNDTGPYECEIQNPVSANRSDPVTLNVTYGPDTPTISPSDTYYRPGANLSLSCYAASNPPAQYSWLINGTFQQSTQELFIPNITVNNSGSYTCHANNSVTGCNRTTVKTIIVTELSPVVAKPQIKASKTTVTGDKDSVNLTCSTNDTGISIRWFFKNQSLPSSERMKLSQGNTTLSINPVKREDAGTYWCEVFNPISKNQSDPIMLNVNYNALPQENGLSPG
Experimental: In order to assess the binding of the humanized, affinity matured reformatted lead IgGs, single-cycle kinetics analysis was performed on crude supernatants using a Biacore T200 running Biacore T200 Control Software V2.0.1 and Biacore T200 Evaluation Software V3.0. Antibodies were diluted in HBS-P+ to a final concentration of 0.5 μg/ml. At the start of each cycle, antibodies were loaded onto Fc2, Fc3 and Fc4 of the Protein A chip. IgGs were captured at a flow rate of 10 μl/min to give an immobilisation level (RL) of ˜100 RU (a level calculated to obtain a Rₘₐₓ of ˜50-150 RU once the analyte is bound). The surface was then allowed to stabilize. Single-cycle kinetics data was obtained with CEACAM1 as the analyte at a flow rate of 80 μl/min to minimize any potential mass transfer effects. Multiple repeats with the parent (VH1/Vκ8 S29A) antibody were performed to check the stability of the surface and analyte over the kinetic cycles. The signal from the reference channel Fc1 (no antibody) was subtracted from that of Fc2, Fc3 and Fc4 to correct for differences in non-specific binding to the reference surface. A three point, two-fold dilution range from 70 nM to 280 nM CEACAM1 without regeneration between each concentration was used. The signal from each antibody blank run (no CEACAM1) was subtracted to correct for differences in surface stability. The association phase for the three injections of increasing concentrations of CEACAM1 was monitored for 80 seconds each time and a single dissociation phase was measured for 150 seconds following the last injection of CEACAM1. Regeneration of the Protein A surface was conducted using two injections of 10 mM glycine-HCL pH 1.5 followed by a stabilization period of 250 seconds.

His-tagged CEACAM1 [2] = target: T1, His-tagged CEACAM1; experiment: SPR single-cycle, IgG captured
Experimental: As an alternative approach to assess the binding of the 36 antibody combinations and the three control antibodies to CEACAM1, a kinetic analysis was performed on a Biacore T200 (serial no. 1909913) running Biacore T200 Evaluation Software V2.0.1 (Uppsala, Sweden). All experiments were run at 25° C. with HBS-P+ running buffer (pH 7.4) (GE Healthcare, cat. no. BR100671). All kinetic experiments were performed using His-tagged CEACAM1 as the analyte. For all experiments, antibodies were immobilized onto a Series S Protein A sensor chip surface. For kinetic experiments, the amount of immobilized/captured ligand was limited to avoid mass transfer effects at the surface of the chip with the surface ideally having an analyte binding level (Rₘₐₓ) of 50-150 RUs. Using a MW of 45 kDa for the CEACAM1 analyte, 150 kDa for the antibody ligand (estimated value for IgG), 50 RU for Rmax and the stoichiometry (Sm) as 2 due to the ability of each antibody to bind 2 target molecules, a target response level of ˜75 RUs was set for capture of all the sample antibodies.
Single cycle analysis of the 36 antibody combinations and the three control antibodies was performed on purified antibodies (Vκ1 to Vκ6 variants) or on the supernatants of the transiently transfected HEK EBNA cells (Vκ7 to Vκ12 variants). In some instances, where supernatant was not available, purified chimeric antibody VH0/Vκ0 was spiked into HEK EBNA culture medium to use as a positive control. Antibodies were diluted in HBS-P+ to a concentration of 1 μg/ml (as determined by an IgG quantitation ELISA). At the start of each cycle, antibodies were loaded onto Fc2, Fc3 and Fc4 of a protein A chip and IgG captured at a flow rate of 8 μl/min to give an RU of ˜75. The surface was then allowed to stabilize. Single cycle kinetic data was obtained at a flow rate of 50 μl/min to minimize any potential mass transfer effects. Multiple repeats of the chimeric antibody VH0/Vκ0 were performed to check the stability of the surface and analyte over the kinetic cycles. The signal from the reference channel Fc1 (no antibody) was subtracted from that of Fc2, Fc3 and Fc4 to correct for differences in non-specific binding to a reference surface. A 5 point 2-fold dilution range from 3.125 to 50 nM CEACAM1 without regeneration between each concentration was used.

His-tagged CEACAM1 [3] = target: T1, His-tagged CEACAM1; experiment: SPR single-cycle, purified IgG captured
Method in brief: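 On a Biacore T200, purified IgG was captured on a Series S Protein A chip, and His-tagged CEACAM1 was passed over it as the analyte in single-cycle kinetics surface plasmon resonance at 25° C in HBS-P+ (pH 7.4). Reference-channel and blank-run signals were subtracted before fitting kon, koff and Kd, with relative KD calculated against the parent antibody assayed in the same experiment.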

His-tagged CEACAM1 [4] = target: T1, His-tagged CEACAM1; experiment: SPR single-cycle, supernatant IgG captured; remark: listed apart in the source
Method in brief: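 His-tagged CEACAM1 served as analyte over Protein A-captured IgG in single-cycle surface plasmon resonance on a Biacore T200, performed at 25° C in HBS-P+ (pH 7.4). The IgG was taken from supernatants of transiently PEI-transfected HEK EBNA cells grown in 6-well plates and harvested 5-7 days later. Relative KD, alongside fitted Kon, koff and Kd, was referenced to the parent antibody run in the same experiment.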

B2: 9B3_9E5_8H3/CP08F05 (antibody, IgG4, V domains shown)
VH: EVQLLESGGGLVQPGGSLRLSCAASGFTFNAHAISWVRQAPGKGLEWVATISSGGTYTYYPDSVKGRFTISRDNSKNTLYLQMNSLKAEDTAMYYCARHGFDYFPYWFAHWGQGTLVTVSS
VL: EIVLTQSPATLSLSPGERATLSCRANSAVSYMYWYQQKPGQAPRPWIYLTSNRATGVPARFSGSGSGTDYTLTISSLEPEDFAVYYCQQWTSNPPTFGQGTKLEIK
notes: IgG4 (S241P), kappa
Kd (His-tagged CEACAM1 [1]): 210 nM
koff (His-tagged CEACAM1 [1]): 0.018 s⁻¹
kon (His-tagged CEACAM1 [1]): 86000 M⁻¹ s⁻¹
relative KD to parent (His-tagged CEACAM1 [1]): 2.4

B3: VH4/Vκ6 (antibody, IgG4, V domains shown)
VH: EVQLLESGGGLVQPGGSLRLSCAASGFIFSSHGMSWVRQAPGKGLEWVSTISSGGTYTYYADSVKGRFTISRDNSKNTLYLQMNSLRAEDTAVYYCARHDFDYDAAWFAYWGQGTLVTVSS
VL: DIQLTQSPSFLSASVGDRVTITCRANSSVSYMAWYQQKPGKAPKLLIYLTSNLQSGVPSRFSGSGSGTEFTLTISSLQPEDFATYYCQQWSSNPPTFGQGTKLEIK
notes: IgG4 (S241P), kappa
binding result (His-tagged CEACAM1 [2]): no binding (tested: 50 nM)

B6: 9B3_9E5/CP08F05 (antibody, IgG4, V domains shown)
VH: B2 VH with F104D, P105A, Y106A, H110Y
VL: B2 VL
notes: IgG4 (S241P), kappa
Kd (His-tagged CEACAM1 [1]): 95 nM
koff (His-tagged CEACAM1 [1]): 0.012 s⁻¹
kon (His-tagged CEACAM1 [1]): 130000 M⁻¹ s⁻¹
relative KD to parent (His-tagged CEACAM1 [1]): 5.9

B7: 9B3_9E5_8H3/Vκ8 S29A (antibody, IgG4, V domains shown)
VH: B2 VH
VL: B2 VL with T91S
notes: IgG4 (S241P), kappa
Kd (His-tagged CEACAM1 [1]): 210 nM
koff (His-tagged CEACAM1 [1]): 0.02 s⁻¹
kon (His-tagged CEACAM1 [1]): 95000 M⁻¹ s⁻¹
relative KD to parent (His-tagged CEACAM1 [1]): 2.4

Next, values leading:

Kd (His-tagged CEACAM1 [1]): 270 nM
koff (His-tagged CEACAM1 [1]): 0.022 s⁻¹
kon (His-tagged CEACAM1 [1]): 82000 M⁻¹ s⁻¹
relative KD to parent (His-tagged CEACAM1 [1]): 1.9
B1: 9B3_9E5_8H3/CP08E05 (antibody, IgG4, V domains shown)
VH: B2 VH
VL: B2 VL with S92T
notes: IgG4 (S241P), kappa

Kd (His-tagged CEACAM1 [1]): 93 nM
koff (His-tagged CEACAM1 [1]): 0.0061 s⁻¹
kon (His-tagged CEACAM1 [1]): 66000 M⁻¹ s⁻¹
relative KD to parent (His-tagged CEACAM1 [1]): 6
Kd (His-tagged CEACAM1 [3]): 76 nM
koff (His-tagged CEACAM1 [3]): 0.0055 s⁻¹
kon (His-tagged CEACAM1 [3]): 73000 M⁻¹ s⁻¹
relative KD to parent (His-tagged CEACAM1 [3]): 6.3
B4: 8H3_9C2/CP08F05 (antibody, IgG4, V domains shown)
VH: B2 VH with G26E, N30S, A31D, I34M
VL: B2 VL
notes: IgG4 (S241P), kappa; also called 8H3_9C2/CPO08_F05

Kd (His-tagged CEACAM1 [4]): 100 nM
koff (His-tagged CEACAM1 [4]): 0.011 s⁻¹
kon (His-tagged CEACAM1 [4]): 110000 M⁻¹ s⁻¹
relative KD to parent (His-tagged CEACAM1 [4]): 5.5
Kd (His-tagged CEACAM1 [3]): 95 nM
koff (His-tagged CEACAM1 [3]): 0.01 s⁻¹
kon (His-tagged CEACAM1 [3]): 110000 M⁻¹ s⁻¹
relative KD to parent (His-tagged CEACAM1 [3]): 5
B5: CP09C02/CP08F05 (antibody, IgG4, V domains shown)
VH: B2 VH with G26E, N30S, A31D, I34M, F104D, P105A, Y106A, H110Y
VL: B2 VL
notes: IgG4 (S241P), kappa

binding result (His-tagged CEACAM1 [2]): no binding (tested: 50 nM)
B8: VH3/Vκ6 (antibody, IgG4, V domains shown)
VH: B3 VH with S49A, V93M
VL: B3 VL
notes: IgG4 (S241P), kappa

Kd (His-tagged CEACAM1 [1]): 70 nM
koff (His-tagged CEACAM1 [1]): 0.0063 s⁻¹
kon (His-tagged CEACAM1 [1]): 90000 M⁻¹ s⁻¹
relative KD to parent (His-tagged CEACAM1 [1]): 8
Kd (His-tagged CEACAM1 [3]): 59 nM
koff (His-tagged CEACAM1 [3]): 0.0056 s⁻¹
kon (His-tagged CEACAM1 [3]): 95000 M⁻¹ s⁻¹
relative KD to parent (His-tagged CEACAM1 [3]): 8
B9: 8H3_9B3/CP08F05 (antibody, IgG4, V domains shown)
VH: B2 VH with G100D
VL: B2 VL
notes: IgG4 (S241P), kappa

Source: US20250074980A1 (BRIGHAM AND WOMEN S HOSPITAL, published 2025)
